This is an account of results in paper PMC4085236.

Test [1] concerns the target Cullin5/Rbx1 complex (mouse | not stated) (UniProt Q9D5V5). Nature of the test: SEC.
For test [2], the target named is GST-Cul5(NTD)/HIS6-Rbx2/Cul(CTD) complex (mouse) (UniProt Q9D5V5). Nature of the test: pull-down + SEC.
Sequence of GST-Cul5(NTD)/HIS6-Rbx2/Cul(CTD) complex (mouse) (Q9D5V5 1-384, chain 1 of 3): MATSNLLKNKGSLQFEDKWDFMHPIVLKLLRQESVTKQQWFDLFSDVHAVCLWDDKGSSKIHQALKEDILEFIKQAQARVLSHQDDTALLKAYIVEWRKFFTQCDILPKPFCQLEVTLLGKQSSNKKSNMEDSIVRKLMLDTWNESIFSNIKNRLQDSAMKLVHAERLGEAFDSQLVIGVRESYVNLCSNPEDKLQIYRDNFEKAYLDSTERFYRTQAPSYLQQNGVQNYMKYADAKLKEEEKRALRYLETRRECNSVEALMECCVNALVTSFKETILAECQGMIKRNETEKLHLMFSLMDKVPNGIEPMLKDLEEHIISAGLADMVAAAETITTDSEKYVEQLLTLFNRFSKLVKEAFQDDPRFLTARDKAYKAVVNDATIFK
Sequence of GST-Cul5(NTD)/HIS6-Rbx2/Cul(CTD) complex (mouse) (Q9D5V5 385-780, chain 2 of 3): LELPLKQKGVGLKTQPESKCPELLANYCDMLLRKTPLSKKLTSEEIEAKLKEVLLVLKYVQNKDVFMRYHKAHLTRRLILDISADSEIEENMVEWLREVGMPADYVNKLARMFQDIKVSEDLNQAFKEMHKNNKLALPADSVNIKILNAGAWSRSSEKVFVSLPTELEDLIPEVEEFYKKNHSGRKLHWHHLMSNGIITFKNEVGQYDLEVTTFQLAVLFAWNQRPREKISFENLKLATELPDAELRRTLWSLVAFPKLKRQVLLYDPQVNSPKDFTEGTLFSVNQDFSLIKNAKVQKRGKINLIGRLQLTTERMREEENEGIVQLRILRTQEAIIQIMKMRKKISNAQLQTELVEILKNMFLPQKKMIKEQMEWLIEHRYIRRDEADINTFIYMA
Sequence of GST-Cul5(NTD)/HIS6-Rbx2/Cul(CTD) complex (mouse) (Q9WTZ1 whole entry, chain 3 of 3, further chain): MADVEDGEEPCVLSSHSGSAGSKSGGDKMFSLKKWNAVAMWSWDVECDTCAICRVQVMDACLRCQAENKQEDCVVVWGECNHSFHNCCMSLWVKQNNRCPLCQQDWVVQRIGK

Sequence of Murine SOCS3/elonginsBC complex (O35718 22-225): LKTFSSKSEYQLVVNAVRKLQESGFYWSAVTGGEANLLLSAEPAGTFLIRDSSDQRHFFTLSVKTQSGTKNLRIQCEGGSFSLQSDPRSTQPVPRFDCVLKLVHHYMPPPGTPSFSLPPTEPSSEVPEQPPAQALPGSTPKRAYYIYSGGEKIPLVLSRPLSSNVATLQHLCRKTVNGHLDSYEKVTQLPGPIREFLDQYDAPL
Sequence of Murine SOCS3/elonginsBC complex (P62869 whole entry): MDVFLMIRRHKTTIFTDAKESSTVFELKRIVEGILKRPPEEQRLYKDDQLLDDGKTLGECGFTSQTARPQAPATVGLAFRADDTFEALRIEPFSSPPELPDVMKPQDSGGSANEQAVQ
Sequence of Murine SOCS3/elonginsBC complex (P83940 whole entry): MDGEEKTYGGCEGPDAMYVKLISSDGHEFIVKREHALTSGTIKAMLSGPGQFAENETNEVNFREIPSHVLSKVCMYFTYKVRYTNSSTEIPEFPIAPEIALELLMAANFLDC
Sequence of Cullin5/Rbx1 complex (mouse | not stated) (Q9D5V5 1-384, chain 1 of 3): as the sequence (Q9D5V5 1-384, chain 1 of 3) above
Sequence of Cullin5/Rbx1 complex (mouse | not stated) (Q9D5V5 385-780, chain 2 of 3): as the sequence (Q9D5V5 385-780, chain 2 of 3) above
Sequence of Cullin5/Rbx1 complex (mouse | not stated) (P62878 whole entry, chain 3 of 3, further chain): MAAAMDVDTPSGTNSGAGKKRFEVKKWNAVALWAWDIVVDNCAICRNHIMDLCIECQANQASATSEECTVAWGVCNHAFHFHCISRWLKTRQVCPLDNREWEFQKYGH

On to “Murine SOCS3/elonginsBC complex (from UniProt O35718 22-225; P62869 1-118; P83940 1-112)”, for which the stoichiometry N in test [1] and in test [2] was 1 in each case.

A word on the stoichiometry N: it is the number of molecules, sites or subunits per partner or assembly.
